Data published in publication PMC7641504 (International journal of mass spectrometry, 2020).

B1: rabbit muscle pyruvate kinase (enzyme)
chain: not shown
modifications: acetylation of the N-terminal serine (after removal of the initiator methionine)
B2: yeast alcohol dehydrogenase (enzyme, UniProt P00330 1-348, looked up)
chain: MSIPETQKGVIFYESHGKLEYKDIPVPKPKANELLINVKYSGVCHTDLHAWHGDWPLPVKLPLVGGHEGAGVVVGMGENVKGWKIGDYAGIKWLNGSCMACEYCELGNESNCPHADLSGYTHDGSFQQYATADAVQAAHIPQGTDLAQVAPILCAGITVYKALKSANLMAGHWVAISGAAGGLGSLAVQYAKAMGYRVLGIDGGEGKEELFRSIGGEVFIDFTKEKDIVGAVLKATDGGAHGVINVSVSEAAIEASTRYVRANGTTVLVGMPAGAKCCSDVFNQVVKSISIVGSYVGNRADTREALDFFARGLVKSPIKVVGLSTLPEIYEKMEKGQIVGRYVVDTSK

Target: the molecule itself
Experiment: native MS

Protein	stoichiometry N
B1	4
B2	4
